The labels stand for the following.
B1: N^-1-[(4S)-4-carboxy-4-(19-carboxynonadecanoylamino)butanoyl]-Gly[Arg1,His14,Arg17,Pro21,Pro27,His34]-h-amylin (peptide)
peptide: {C20 diacid-γGlu}-GRCNTATCATQRLAHFLRHSSPNFGAIPSSTNVGHNTY-NH2
modifications: disulfide 3-8
SMILES: CC[C@H](C)[C@H](NC(=O)[C@H](C)NC(=O)CNC(=O)[C@H](Cc1ccccc1)NC(=O)[C@H](CC(N)=O)NC(=O)[C@@H]1CCCN1C(=O)[C@H](CO)NC(=O)[C@H](CO)NC(=O)[C@H](Cc1c[nH]cn1)NC(=O)[C@H](CCCNC(=N)N)NC(=O)[C@H](CC(C)C)NC(=O)[C@H](Cc1ccccc1)NC(=O)[C@H](Cc1c[nH]cn1)NC(=O)[C@H](C)NC(=O)[C@H](CC(C)C)NC(=O)[C@H](CCCNC(=N)N)NC(=O)[C@H](CCC(N)=O)NC(=O)[C@@H](NC(=O)[C@H](C)NC(=O)[C@@H]1CSSC[C@H](NC(=O)[C@H](CCCNC(=N)N)NC(=O)CNC(=O)CC[C@H](NC(=O)CCCCCCCCCCCCCCCCCCC(=O)O)C(=O)O)C(=O)N[C@@H](CC(N)=O)C(=O)N[C@@H]([C@@H](C)O)C(=O)N[C@@H](C)C(=O)N[C@@H]([C@@H](C)O)C(=O)N1)[C@@H](C)O)C(=O)N1CCC[C@H]1C(=O)N[C@@H](CO)C(=O)N[C@@H](CO)C(=O)N[C@H](C(=O)N[C@@H](CC(N)=O)C(=O)N[C@H](C(=O)NCC(=O)N[C@@H](Cc1c[nH]cn1)C(=O)N[C@@H](CC(N)=O)C(=O)N[C@H](C(=O)N[C@@H](Cc1ccc(O)cc1)C(N)=O)[C@@H](C)O)C(C)C)[C@@H](C)O
notes: Synthetic acylated analogue of human amylin, extended by Gly at position -1; also called compound 100
B2: N^-1-[(4S)-4-carboxy-4-(19-carboxynonadecanoylamino)butanoyl]-Gly[Arg1,Ala14,Arg17,Pro21,Pro27,His34]-h-amylin (peptide)
peptide: {C20 diacid-γGlu}-GRCNTATCATQRLAAFLRHSSPNFGAIPSSTNVGHNTY-NH2
modifications: disulfide 3-8
SMILES: CC[C@H](C)[C@H](NC(=O)[C@H](C)NC(=O)CNC(=O)[C@H](Cc1ccccc1)NC(=O)[C@H](CC(N)=O)NC(=O)[C@@H]1CCCN1C(=O)[C@H](CO)NC(=O)[C@H](CO)NC(=O)[C@H](Cc1c[nH]cn1)NC(=O)[C@H](CCCNC(=N)N)NC(=O)[C@H](CC(C)C)NC(=O)[C@H](Cc1ccccc1)NC(=O)[C@H](C)NC(=O)[C@H](C)NC(=O)[C@H](CC(C)C)NC(=O)[C@H](CCCNC(=N)N)NC(=O)[C@H](CCC(N)=O)NC(=O)[C@@H](NC(=O)[C@H](C)NC(=O)[C@@H]1CSSC[C@H](NC(=O)[C@H](CCCNC(=N)N)NC(=O)CNC(=O)CC[C@H](NC(=O)CCCCCCCCCCCCCCCCCCC(=O)O)C(=O)O)C(=O)N[C@@H](CC(N)=O)C(=O)N[C@@H]([C@@H](C)O)C(=O)N[C@@H](C)C(=O)N[C@@H]([C@@H](C)O)C(=O)N1)[C@@H](C)O)C(=O)N1CCC[C@H]1C(=O)N[C@@H](CO)C(=O)N[C@@H](CO)C(=O)N[C@H](C(=O)N[C@@H](CC(N)=O)C(=O)N[C@H](C(=O)NCC(=O)N[C@@H](Cc1c[nH]cn1)C(=O)N[C@@H](CC(N)=O)C(=O)N[C@H](C(=O)N[C@@H](Cc1ccc(O)cc1)C(N)=O)[C@@H](C)O)C(C)C)[C@@H](C)O
notes: Synthetic acylated analogue of human amylin, extended by Gly at position -1
B3: N^-1-[(4S)-4-carboxy-4-(19-carboxynonadecanoylamino)butanoyl]-Gly[Arg1,His14,Arg17,Pro21,Pro27,Pro34]-h-amylin (peptide)
peptide: {C20 diacid-γGlu}-GRCNTATCATQRLAHFLRHSSPNFGAIPSSTNVGPNTY-NH2
modifications: disulfide 3-8
SMILES: CC[C@H](C)[C@H](NC(=O)[C@H](C)NC(=O)CNC(=O)[C@H](Cc1ccccc1)NC(=O)[C@H](CC(N)=O)NC(=O)[C@@H]1CCCN1C(=O)[C@H](CO)NC(=O)[C@H](CO)NC(=O)[C@H](Cc1c[nH]cn1)NC(=O)[C@H](CCCNC(=N)N)NC(=O)[C@H](CC(C)C)NC(=O)[C@H](Cc1ccccc1)NC(=O)[C@H](Cc1c[nH]cn1)NC(=O)[C@H](C)NC(=O)[C@H](CC(C)C)NC(=O)[C@H](CCCNC(=N)N)NC(=O)[C@H](CCC(N)=O)NC(=O)[C@@H](NC(=O)[C@H](C)NC(=O)[C@@H]1CSSC[C@H](NC(=O)[C@H](CCCNC(=N)N)NC(=O)CNC(=O)CC[C@H](NC(=O)CCCCCCCCCCCCCCCCCCC(=O)O)C(=O)O)C(=O)N[C@@H](CC(N)=O)C(=O)N[C@@H]([C@@H](C)O)C(=O)N[C@@H](C)C(=O)N[C@@H]([C@@H](C)O)C(=O)N1)[C@@H](C)O)C(=O)N1CCC[C@H]1C(=O)N[C@@H](CO)C(=O)N[C@@H](CO)C(=O)N[C@H](C(=O)N[C@@H](CC(N)=O)C(=O)N[C@H](C(=O)NCC(=O)N1CCC[C@H]1C(=O)N[C@@H](CC(N)=O)C(=O)N[C@H](C(=O)N[C@@H](Cc1ccc(O)cc1)C(N)=O)[C@@H](C)O)C(C)C)[C@@H](C)O
notes: as for B2
B4: N^-1-[(4S)-4-carboxy-4-(19-carboxynonadecanoylamino)butanoyl]-Gly[Arg1,Ala14,Arg17,Pro21,Pro27,Pro34]-h-amylin (peptide)
peptide: {C20 diacid-γGlu}-GRCNTATCATQRLAAFLRHSSPNFGAIPSSTNVGPNTY-NH2
modifications: disulfide 3-8
notes: as for B2
B5: N^ε1-[(4S)-4-carboxy-4-[[(4S)-4-carboxy-4-(19-carboxynonadecanoylamino)butanoyl]amino]butanoyl]-[Ser14,Arg17,Pro21,Pro27,Pro34,Glu35]-h-amylin (peptide)
peptide: K([γGlu-γGlu-C20 diacid])CNTATCATQRLASFLRHSSPNFGAIPSSTNVGPETY-NH2
modifications: disulfide 2-7; N-terminus assumed
SMILES: CC[C@H](C)[C@H](NC(=O)[C@H](C)NC(=O)CNC(=O)[C@H](Cc1ccccc1)NC(=O)[C@H](CC(N)=O)NC(=O)[C@@H]1CCCN1C(=O)[C@H](CO)NC(=O)[C@H](CO)NC(=O)[C@H](Cc1c[nH]cn1)NC(=O)[C@H](CCCNC(=N)N)NC(=O)[C@H](CC(C)C)NC(=O)[C@H](Cc1ccccc1)NC(=O)[C@H](CO)NC(=O)[C@H](C)NC(=O)[C@H](CC(C)C)NC(=O)[C@H](CCCNC(=N)N)NC(=O)[C@H](CCC(N)=O)NC(=O)[C@@H](NC(=O)[C@H](C)NC(=O)[C@@H]1CSSC[C@H](NC(=O)[C@@H](N)CCCCNC(=O)CC[C@H](NC(=O)CC[C@H](NC(=O)CCCCCCCCCCCCCCCCCCC(=O)O)C(=O)O)C(=O)O)C(=O)N[C@@H](CC(N)=O)C(=O)N[C@@H]([C@@H](C)O)C(=O)N[C@@H](C)C(=O)N[C@@H]([C@@H](C)O)C(=O)N1)[C@@H](C)O)C(=O)N1CCC[C@H]1C(=O)N[C@@H](CO)C(=O)N[C@@H](CO)C(=O)N[C@H](C(=O)N[C@@H](CC(N)=O)C(=O)N[C@H](C(=O)NCC(=O)N1CCC[C@H]1C(=O)N[C@@H](CCC(=O)O)C(=O)N[C@H](C(=O)N[C@@H](Cc1ccc(O)cc1)C(N)=O)[C@@H](C)O)C(C)C)[C@@H](C)O
notes: Synthetic acylated analogue of human amylin; also called compound 120

Numbered stars: 1 amine (or outer) side, 2 acyl side, 3 side chain; on linkers, the order of the positions; unused ones are H or OH. Bridge positions count the residues as written; N and C are the ends. Side chains are listed from the residue outwards. Ends that are not written are not given here. * marks the point of attachment. C20 diacid = O=C(O)CCCCCCCCCCCCCCCCCCC(=O)*; γGlu = O=C(O)[C@H](CCC(=O)[*:2])N[*:1]

The values below come from patent US20140087995A1 (published 2014).

One assay deals with T1, rat amylin receptor (rat calcitonin receptor + rat RAMP 3) (rat, UniProt P32214 25-516; Q9JJ73 23-147).
T1 construct: whole, on cells; Membranes of transiently transfected BHK tk'ts 13 cells; also called rAmylin-R; rat amylin 3(a) receptor
T1 sequence (looked up) 1: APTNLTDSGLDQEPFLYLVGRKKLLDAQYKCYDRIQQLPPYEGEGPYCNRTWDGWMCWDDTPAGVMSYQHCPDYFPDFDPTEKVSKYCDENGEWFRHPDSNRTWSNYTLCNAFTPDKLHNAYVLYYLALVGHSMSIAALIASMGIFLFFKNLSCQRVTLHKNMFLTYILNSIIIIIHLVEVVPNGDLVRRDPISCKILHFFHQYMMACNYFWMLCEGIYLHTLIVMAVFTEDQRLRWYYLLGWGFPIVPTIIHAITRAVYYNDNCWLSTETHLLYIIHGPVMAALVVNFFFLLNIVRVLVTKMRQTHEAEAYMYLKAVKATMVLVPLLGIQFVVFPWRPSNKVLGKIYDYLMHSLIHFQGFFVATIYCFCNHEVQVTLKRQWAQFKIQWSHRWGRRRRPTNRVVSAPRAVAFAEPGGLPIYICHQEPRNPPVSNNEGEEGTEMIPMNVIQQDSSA
T1 sequence (looked up) 2: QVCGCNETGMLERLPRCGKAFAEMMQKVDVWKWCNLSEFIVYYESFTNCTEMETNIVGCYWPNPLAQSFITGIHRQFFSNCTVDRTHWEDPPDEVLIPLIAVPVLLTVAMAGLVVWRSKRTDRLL
In words: SPA competition with 125I-rat amylin on membranes of BHK tk'ts 13 cells with rat calcitonin receptor + rat RAMP3 (Assay VI).
For B1, the IC50 is 0.0112 µM.

As for B2, the half-inhibitory concentration (IC50) turned out to be 0.00807 µM.

Take B3: the IC50 is 0.000674 µM.

For B4, the IC50 was 0.000436 µM.

As for B5, the IC50 was 0.000161 µM.

The next assay concerns the target T2, human calcitonin receptor (human, UniProt P30988 25-474).
T2 construct: whole, on cells; Membranes of stably transfected cells; also called hCTR; hCT
T2 sequence (looked up): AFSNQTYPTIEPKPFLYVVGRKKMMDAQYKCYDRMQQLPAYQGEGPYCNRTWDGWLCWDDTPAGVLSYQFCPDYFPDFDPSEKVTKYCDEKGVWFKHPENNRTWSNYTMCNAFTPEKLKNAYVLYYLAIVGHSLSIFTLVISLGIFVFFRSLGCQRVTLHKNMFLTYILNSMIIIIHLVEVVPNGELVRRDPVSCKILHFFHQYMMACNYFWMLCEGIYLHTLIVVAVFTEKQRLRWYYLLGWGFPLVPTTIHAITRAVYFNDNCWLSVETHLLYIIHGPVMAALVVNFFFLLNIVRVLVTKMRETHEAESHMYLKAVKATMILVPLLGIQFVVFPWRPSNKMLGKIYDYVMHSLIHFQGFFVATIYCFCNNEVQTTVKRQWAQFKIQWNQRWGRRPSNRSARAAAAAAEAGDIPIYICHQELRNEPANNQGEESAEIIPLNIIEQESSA
In words: ratio of IC50 on human calcitonin receptor to IC50 on human amylin receptor (reference m42), SPA competition. In a few lines:
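Competition binding by SPA with cell membranes (35 ng/μL) and SPA beads in 50 mM Hepes pH 7.4 with 1 mM CaCl2, 5 mM MgCl2, 0.1% OA and 0.02% Tween20. Incubated 120 min at 25 °C with shaking, then counted.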
Regarding B1, the “Ratio hCT/hAmylin binding” value came out at 65.3.

Regarding B2, the “Ratio hCT/hAmylin binding” value is 68.6.

Consider B3, for which the “Ratio hCT/hAmylin binding” value is 36.2.

As for B4, the “Ratio hCT/hAmylin binding” value was 26.5.

B5: the “Ratio hCT/hAmylin binding” value came out at 45.3.

The target in the next assay is T3, rat calcitonin receptor (rat, UniProt P32214 25-516).
T3 construct: whole, on cells; Membranes of transiently transfected BHK tk'ts 13 cells; also called rCTR; rat calcitonin (a) receptor
T3 sequence (looked up): T1 sequence (looked up) 1
Briefly: SPA competition with 125I-calcitonin on membranes of BHK tk'ts 13 cells with rat calcitonin receptor (Assay VIII).
For B1, the IC50 was found to be 0.311 µM.

For B2, the IC50 turned out to be 0.492 µM.

Regarding B3, the IC50 came out at 0.0659 µM.

As for B4, the IC50 was 0.0563 µM.

Take B5: the IC50 turned out to be 0.14 µM.

The target of another assay is T3, rat calcitonin receptor. In words: ratio of IC50 on rat calcitonin receptor to IC50 on rat amylin receptor (reference m40).
Regarding B1, the “Ratio rCT/rAmylin binding” value was 27.7.

For B2, the “Ratio rCT/rAmylin binding” value came out at 60.9.

With B3, the “Ratio rCT/rAmylin binding” value amounted to 97.7.

As for B4, the “Ratio rCT/rAmylin binding” value was 129.

As to B5, the “Ratio rCT/rAmylin binding” value was determined as 868.

As usually defined, the IC50 is the concentration that gives 50% inhibition.
